Measured values taken from patent publication US20200262877A1, “ION CHANNEL-BINDING PEPTIDES AND METHODS OF USE THEREOF” (priority 2017, published 2020).
“And” between values parts separate entries of the source, which are not always exact repeats. Equal values may be shown once. Where a name gives a salt, the structure may show the parent alone.

Legend:
TRPV1 = target: T1, TRPV1 (Homo sapiens, UniProt Q8NER1); experiment: Ion channel panel (IonWorks Barracuda): TRPV1; type: cell-based
T1 construct: host or cells: HEK293 or CHO
Procedure: (§1) This example describes a method for assaying ion channel activity in cells.
(§2) Peptides were screened in duplicate at final concentrations of 20 μM and 200 nM, as determined by amino acid analysis, and diluted into HEPES buffered physiological saline (HBPS). HEK293 or CHO cells from the American Type Culture Collection (ATCC) were transfected with the appropriate ion channel before use. HEK293 cells were grown in Dulbecco's Modified Eagle Medium/Nutrient Mixture F-12, and CHO cells were cultured in Ham's F-12 media. All cultures were supplemented with 10% fetal bovine serum, 100 U/ml penicillin G, 100 μg/ml streptomycin sulfate, and the appropriate selection antibiotics. Prior to use, cells were washed twice with Hank's Balanced Salt Solution, and treated with Accutase cell detachment solution (Sigma-Aldrich). Cells were then washed. Peptides and controls were incubated with cells for at least five minutes.
(§3) Percent inhibition was defined as: (1-(Ipeptide/Icontrol))×100%).
(§4) Percent values were calculated using the following formula: % activation=(IPeptide/Icontrol)×100%, where IPeptide is the current produced by co-application a peptide with agonist, and Icontrol refers to the current produced by stimulation in control. Control used for each ion channel is the reference compound matched to a particular channel, as illustrated in TABLE 10 below.

5HT3a = target: T2, 5HT3a (Homo sapiens, UniProt P46098); experiment: Ion channel panel (IonWorks Barracuda): 5HT3a; type: cell-based
T2 construct: host or cells: HEK293 or CHO
T2 sequence (P46098 whole entry, looked up): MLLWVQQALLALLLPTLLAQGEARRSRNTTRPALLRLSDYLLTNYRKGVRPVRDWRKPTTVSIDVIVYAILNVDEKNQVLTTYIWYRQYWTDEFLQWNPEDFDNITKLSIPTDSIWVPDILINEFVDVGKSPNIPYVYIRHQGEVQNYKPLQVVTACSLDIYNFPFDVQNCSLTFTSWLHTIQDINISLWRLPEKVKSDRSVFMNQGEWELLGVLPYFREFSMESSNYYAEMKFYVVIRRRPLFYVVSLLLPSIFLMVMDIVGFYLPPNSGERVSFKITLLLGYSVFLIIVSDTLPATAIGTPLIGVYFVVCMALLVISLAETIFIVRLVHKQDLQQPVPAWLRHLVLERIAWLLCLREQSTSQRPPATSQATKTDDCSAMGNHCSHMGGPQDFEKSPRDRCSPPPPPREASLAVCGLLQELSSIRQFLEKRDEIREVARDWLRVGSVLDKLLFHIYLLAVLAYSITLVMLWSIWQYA
Procedure: as §1, §2, §3, §4

α3β4 = target: T3, α3β4 (Homo sapiens, UniProt P30926+P32297); experiment: Ion channel panel (IonWorks Barracuda): α3β4; type: cell-based; details: 100% = no change, <100% = inhibition
T3 construct: host or cells: HEK293 or CHO
Procedure: as §1, §2, §3, §4

α4β2 = target: T4, α4β2 (Homo sapiens, UniProt P17787+P43681); experiment: Ion channel panel (IonWorks Barracuda): α4β2; type: cell-based
T4 construct: host or cells: HEK293 or CHO
Procedure: as §1, §2, §3, §4

Cav2.1 = target: T5, Cav2.1 (Homo sapiens, UniProt O00555); experiment: cell-based
T5 construct: host or cells: HEK293 or CHO
Procedure: as §1, §2, §3, §4

Cav2.2 = target: T6, Cav2.2 (Homo sapiens, UniProt Q00975); experiment: cell-based
T6 construct: host or cells: HEK293 or CHO
Procedure: as §1, §2, §3, §4

Kv2.1 = target: T7, Kv2.1 (Homo sapiens, UniProt Q14721); experiment: cell-based
T7 construct: host or cells: HEK293 or CHO
Procedure: as §1, §2, §3, §4

GABA = experiment: Ion channel panel (IonWorks Barracuda): GABA; type: cell-based
Procedure: as §1, §2, §3, §4

Nav1.5 = Nav1.5 (Homo sapiens, UniProt Q14524); experiment: in vitro; details: 100% = no change; for Activity of Nav1.5 with peptide, expressed as a percentage of the reference compound: peptide at 0.2 μM; for Activity of Nav1.5 with peptide (percentage of the reference compound): peptide at 20 μM
Procedure: as §1, §2, §3, §4

hERG = hERG (Homo sapiens, UniProt Q12809); experiment: in vitro; details: 100% = no change, <100% = inhibition
Procedure: as §1, §2, §3, §4

Kir2.1 = target: T8, Kir2.1 (Homo sapiens, UniProt P63252); experiment: Ion channel panel (IonWorks Barracuda): Kir2.1; type: cell-based
T8 construct: host or cells: HEK293 or CHO
Procedure: as §1, §2, §3, §4

Kv1.1 = target: T9, Kv1.1 (Homo sapiens, UniProt Q09470); experiment: cell-based; type: cell-based; details: 100% = no change, <100% = inhibition
T9 construct: host or cells: HEK293 or CHO
Procedure: as §1, §2, §3, §4

Kv1.2 = target: T10, Kv1.2 (Homo sapiens, UniProt P16389); experiment: cell-based; type: cell-based; details: 100% = no change, <100% = inhibition
T10 construct: host or cells: HEK293 or CHO
Procedure: as §1, §2, §3, §4

Kv1.3 = target: T11, Kv1.3 (Homo sapiens, UniProt P22001); experiment: cell-based; type: cell-based; details: for Kv1.3 inhibition: 0.2 or 20 μM, FIG. 2
T11 construct: host or cells: HEK293 or CHO
Procedure: as §1, §2, §3, §4

Nav1.7 = target: T12, Nav1.7 (Homo sapiens, UniProt Q15858); experiment: cell-based; type: cell-based; details: for Activity of Nav1.7 with peptide, expressed as a percentage of the reference compound: peptide at 0.2 μM; for Activity of Nav1.7 with peptide, expressed as a percentage of the reference compound / Activity of Nav1.7 with peptide (percentage of the reference compound): 100% = no change; for Activity of Nav1.7 with peptide (percentage of the reference compound): peptide at 20 μM
T12 construct: host or cells: HEK293 or CHO
Procedure: as §1
as §2, with “Peptides were screened in duplicate at final concentrations of 20 μM and 200 nM, as determined by amino acid analysis, and diluted into HEPES buffered physiological saline (HBPS).” left out
as §3, §4

NR2A = target: T13, NR2A (Homo sapiens, UniProt Q12879); experiment: Ion channel panel (IonWorks Barracuda): NR2A; type: cell-based; details: 100% = no change, <100% = inhibition
T13 construct: host or cells: HEK293 or CHO
Procedure: as §1, §2, §3, §4

NR2B = target: T14, NR2B (Homo sapiens, UniProt Q13224); experiment: Ion channel panel (IonWorks Barracuda): NR2B; type: cell-based; details: 100% = no change, <100% = inhibition
T14 construct: host or cells: HEK293 or CHO
Procedure: as §1, §2, §3, §4

TRPA1 = target: T15, TRPA1 (Homo sapiens, UniProt O75762); experiment: Ion channel panel (IonWorks Barracuda): TRPA1; type: cell-based; details: 100% = no change, <100% = inhibition
T15 construct: host or cells: HEK293 or CHO
Procedure: as §1, §2, §3, §4

[1] = peptide at 0.2 μM, 100% = no change, <100% = inhibition
[2] = peptide at 20 μM, 100% = no change, <100% = inhibition
[3] = first of two Nav1.5 columns (probably TP1)
[4] = second of two Nav1.5 columns (probably TP2)
[5] = first of two Nav1.7 columns (probably TP1)
[6] = second of two Nav1.7 columns (probably TP2)

Sequence of Nav1.5 (Q14524 whole entry): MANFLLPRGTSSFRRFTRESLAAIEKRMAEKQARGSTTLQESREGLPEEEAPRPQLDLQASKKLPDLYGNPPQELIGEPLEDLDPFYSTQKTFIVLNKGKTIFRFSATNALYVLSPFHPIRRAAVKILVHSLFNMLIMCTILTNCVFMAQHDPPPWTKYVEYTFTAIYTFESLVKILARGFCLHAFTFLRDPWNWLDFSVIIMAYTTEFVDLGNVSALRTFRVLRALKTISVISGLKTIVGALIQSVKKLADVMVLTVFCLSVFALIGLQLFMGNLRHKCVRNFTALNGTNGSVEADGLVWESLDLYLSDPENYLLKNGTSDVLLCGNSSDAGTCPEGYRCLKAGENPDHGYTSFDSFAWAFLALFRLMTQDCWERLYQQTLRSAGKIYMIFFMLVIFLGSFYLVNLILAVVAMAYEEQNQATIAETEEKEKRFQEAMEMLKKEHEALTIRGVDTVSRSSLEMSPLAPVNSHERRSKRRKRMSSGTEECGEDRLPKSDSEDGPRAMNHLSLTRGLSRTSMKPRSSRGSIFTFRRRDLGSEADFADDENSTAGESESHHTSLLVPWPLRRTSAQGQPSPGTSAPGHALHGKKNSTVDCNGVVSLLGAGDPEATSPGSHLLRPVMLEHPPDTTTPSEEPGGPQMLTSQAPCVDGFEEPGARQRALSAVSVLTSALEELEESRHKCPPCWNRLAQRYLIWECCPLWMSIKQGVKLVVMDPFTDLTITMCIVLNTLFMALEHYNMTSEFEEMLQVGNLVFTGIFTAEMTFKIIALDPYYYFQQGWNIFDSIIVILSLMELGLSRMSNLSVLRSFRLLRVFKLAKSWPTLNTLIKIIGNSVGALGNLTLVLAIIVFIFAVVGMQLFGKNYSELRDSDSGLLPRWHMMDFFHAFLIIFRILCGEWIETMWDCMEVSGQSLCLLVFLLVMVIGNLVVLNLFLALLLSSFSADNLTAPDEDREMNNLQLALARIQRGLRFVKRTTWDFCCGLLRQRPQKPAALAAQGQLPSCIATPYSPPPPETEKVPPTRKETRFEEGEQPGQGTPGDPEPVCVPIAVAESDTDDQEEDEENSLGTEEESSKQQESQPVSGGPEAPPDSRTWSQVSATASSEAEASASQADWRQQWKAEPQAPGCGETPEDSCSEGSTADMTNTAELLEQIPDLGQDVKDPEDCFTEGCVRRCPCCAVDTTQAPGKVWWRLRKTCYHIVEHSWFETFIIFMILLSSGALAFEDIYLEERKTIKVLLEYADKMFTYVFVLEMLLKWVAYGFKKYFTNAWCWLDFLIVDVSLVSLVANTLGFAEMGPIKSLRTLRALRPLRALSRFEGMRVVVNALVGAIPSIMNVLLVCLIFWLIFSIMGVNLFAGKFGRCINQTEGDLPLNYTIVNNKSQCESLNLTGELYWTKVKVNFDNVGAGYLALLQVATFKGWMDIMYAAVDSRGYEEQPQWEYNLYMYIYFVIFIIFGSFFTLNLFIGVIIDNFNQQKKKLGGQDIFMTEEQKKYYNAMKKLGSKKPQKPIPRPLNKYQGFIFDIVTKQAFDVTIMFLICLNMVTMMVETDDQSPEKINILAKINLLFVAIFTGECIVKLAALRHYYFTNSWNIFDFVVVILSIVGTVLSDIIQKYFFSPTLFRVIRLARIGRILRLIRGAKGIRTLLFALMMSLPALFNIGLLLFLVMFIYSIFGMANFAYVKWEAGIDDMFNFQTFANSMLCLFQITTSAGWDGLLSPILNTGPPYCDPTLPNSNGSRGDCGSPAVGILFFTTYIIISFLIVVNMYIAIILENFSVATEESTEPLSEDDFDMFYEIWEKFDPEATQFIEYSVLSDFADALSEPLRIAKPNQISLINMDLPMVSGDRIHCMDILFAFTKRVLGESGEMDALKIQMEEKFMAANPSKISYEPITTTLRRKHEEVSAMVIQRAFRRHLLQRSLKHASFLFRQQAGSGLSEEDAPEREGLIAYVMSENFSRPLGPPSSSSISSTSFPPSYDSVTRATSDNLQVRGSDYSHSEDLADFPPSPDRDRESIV
T4 sequence (P43681 29-627): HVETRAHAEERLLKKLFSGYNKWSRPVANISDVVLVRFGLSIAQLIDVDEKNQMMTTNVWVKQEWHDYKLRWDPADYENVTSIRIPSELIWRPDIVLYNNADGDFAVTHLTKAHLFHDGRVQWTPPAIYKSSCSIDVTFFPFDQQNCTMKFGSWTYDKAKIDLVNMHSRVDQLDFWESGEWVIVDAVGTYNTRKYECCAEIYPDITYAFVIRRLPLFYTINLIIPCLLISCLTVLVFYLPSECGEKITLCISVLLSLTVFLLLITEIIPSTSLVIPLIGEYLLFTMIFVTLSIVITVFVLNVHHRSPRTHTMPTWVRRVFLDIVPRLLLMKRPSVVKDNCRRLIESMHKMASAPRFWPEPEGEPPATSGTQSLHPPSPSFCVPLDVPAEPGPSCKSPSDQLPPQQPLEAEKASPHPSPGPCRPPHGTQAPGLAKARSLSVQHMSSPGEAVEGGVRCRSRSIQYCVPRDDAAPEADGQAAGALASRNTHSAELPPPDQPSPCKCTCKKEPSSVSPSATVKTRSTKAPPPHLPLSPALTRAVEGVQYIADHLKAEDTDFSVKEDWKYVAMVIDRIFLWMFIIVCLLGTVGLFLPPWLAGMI
T4 sequence (P17787 26-502): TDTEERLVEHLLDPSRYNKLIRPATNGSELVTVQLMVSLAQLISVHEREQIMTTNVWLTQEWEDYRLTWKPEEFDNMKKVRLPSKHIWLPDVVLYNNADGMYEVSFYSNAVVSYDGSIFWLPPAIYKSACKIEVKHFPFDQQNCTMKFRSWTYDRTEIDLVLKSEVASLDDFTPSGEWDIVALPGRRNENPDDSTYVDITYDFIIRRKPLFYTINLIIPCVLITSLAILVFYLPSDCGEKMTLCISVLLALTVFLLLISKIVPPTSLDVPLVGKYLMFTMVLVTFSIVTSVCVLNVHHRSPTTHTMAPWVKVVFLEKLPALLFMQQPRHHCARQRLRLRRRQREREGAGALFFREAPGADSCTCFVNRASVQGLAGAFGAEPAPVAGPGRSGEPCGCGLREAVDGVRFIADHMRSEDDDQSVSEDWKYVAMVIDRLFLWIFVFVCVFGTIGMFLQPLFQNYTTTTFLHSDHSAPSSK
T7 sequence (Q14721 whole entry): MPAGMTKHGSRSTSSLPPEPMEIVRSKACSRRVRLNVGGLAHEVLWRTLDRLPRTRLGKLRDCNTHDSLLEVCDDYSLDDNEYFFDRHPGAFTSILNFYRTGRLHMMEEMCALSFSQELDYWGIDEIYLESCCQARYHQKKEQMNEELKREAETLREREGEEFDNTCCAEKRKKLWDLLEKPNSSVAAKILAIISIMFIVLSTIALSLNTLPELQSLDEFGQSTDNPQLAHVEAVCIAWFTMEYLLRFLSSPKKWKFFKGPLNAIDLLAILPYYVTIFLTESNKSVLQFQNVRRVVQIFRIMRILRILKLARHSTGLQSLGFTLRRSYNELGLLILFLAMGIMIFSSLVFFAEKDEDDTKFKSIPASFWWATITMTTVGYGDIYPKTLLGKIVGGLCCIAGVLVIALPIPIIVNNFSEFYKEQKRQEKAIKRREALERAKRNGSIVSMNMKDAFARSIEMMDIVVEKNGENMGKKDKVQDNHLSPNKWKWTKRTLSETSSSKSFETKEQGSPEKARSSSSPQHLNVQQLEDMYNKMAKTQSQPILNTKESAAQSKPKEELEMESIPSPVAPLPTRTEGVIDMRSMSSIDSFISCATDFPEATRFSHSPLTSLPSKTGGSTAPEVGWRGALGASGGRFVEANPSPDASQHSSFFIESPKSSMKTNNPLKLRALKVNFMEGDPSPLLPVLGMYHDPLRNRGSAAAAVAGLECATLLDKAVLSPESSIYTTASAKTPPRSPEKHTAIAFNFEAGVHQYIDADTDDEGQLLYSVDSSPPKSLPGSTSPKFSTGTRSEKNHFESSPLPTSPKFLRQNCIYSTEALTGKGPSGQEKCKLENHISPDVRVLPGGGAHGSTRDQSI
T8 sequence (P63252 whole entry): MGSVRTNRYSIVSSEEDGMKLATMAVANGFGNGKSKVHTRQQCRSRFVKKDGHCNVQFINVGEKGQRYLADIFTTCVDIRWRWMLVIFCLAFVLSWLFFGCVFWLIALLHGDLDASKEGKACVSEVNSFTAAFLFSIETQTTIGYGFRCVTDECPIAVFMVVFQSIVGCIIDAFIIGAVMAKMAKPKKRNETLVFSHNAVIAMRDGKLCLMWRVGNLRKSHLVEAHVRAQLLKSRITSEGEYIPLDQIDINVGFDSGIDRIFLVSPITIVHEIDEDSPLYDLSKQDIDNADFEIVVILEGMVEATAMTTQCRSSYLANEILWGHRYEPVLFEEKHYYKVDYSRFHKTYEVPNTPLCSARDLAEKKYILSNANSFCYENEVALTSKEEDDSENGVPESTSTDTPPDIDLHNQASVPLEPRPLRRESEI
T11 sequence (P22001 whole entry): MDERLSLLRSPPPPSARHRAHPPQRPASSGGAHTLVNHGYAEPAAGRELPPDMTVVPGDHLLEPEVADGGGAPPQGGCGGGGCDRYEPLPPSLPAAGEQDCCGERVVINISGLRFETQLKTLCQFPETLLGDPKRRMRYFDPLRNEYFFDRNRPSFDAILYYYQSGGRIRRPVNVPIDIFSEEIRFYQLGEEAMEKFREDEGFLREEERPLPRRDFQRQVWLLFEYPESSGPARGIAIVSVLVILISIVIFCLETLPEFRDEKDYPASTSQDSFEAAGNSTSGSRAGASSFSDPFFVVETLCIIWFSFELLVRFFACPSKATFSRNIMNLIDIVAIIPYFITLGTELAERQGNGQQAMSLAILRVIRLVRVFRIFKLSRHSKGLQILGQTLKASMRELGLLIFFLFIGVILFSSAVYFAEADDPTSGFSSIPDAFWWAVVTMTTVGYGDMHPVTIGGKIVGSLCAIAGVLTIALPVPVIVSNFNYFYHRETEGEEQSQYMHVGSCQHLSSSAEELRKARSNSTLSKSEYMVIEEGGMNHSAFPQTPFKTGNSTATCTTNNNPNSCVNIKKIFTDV

Oc1cc2c(cc1O)CN(C(=S)NCCc1ccc(Cl)cc1)CCC2 [Capsazepine, reference compound]
IC50 (TRPV1): 0.09 µM

23 (GSCIGEGVPCDENDPRCCFGLVCLKPTLHGIWYKSYYCYKK) [compound 23]
Activity of 5HT3a with peptide (percentage of the reference compound) (5HT3a): 101%
Activity of 5HT3a with peptide, expressed as a percentage of the reference compound (5HT3a): 74%
Activity of a3b4 with peptide, expressed as a percentage of the reference compound (α3β4; peptide at 0.2 μM): 94%
Activity of a3b4 with peptide (percentage of the reference compound) (α3β4; peptide at 20 μM): 93%
Activity of a4b2 with peptide, expressed as a percentage of the reference compound (α4β2; [1]): 87%
Activity of a4b2 with peptide (percentage of the reference compound) (α4β2; [2]): 79%
Activity of Cav2.1 with peptide, expressed as a percentage of the reference compound (Cav2.1; [1]): 95%
Activity of Cav2.1 with peptide (percentage of the reference compound) (Cav2.1; [2]): 102%
Activity of Cav2.2 with peptide, expressed as a percentage of the reference compound (Cav2.2; [1]): 110%
Activity of Cav2.2 with peptide (percentage of the reference compound) (Cav2.2; [2]): 95%
Activity of Kv2.1 with peptide, expressed as a percentage of the reference compound (Kv2.1; [1]): 93%
Activity of Kv2.1 with peptide (percentage of the reference compound) (Kv2.1; [2]): 103%
Activity of GABA with peptide, expressed as a percentage of the reference compound (GABA; [1]): 100%
Activity of GABA with peptide (percentage of the reference compound) (GABA; [2]): 103%
Activity of Nav1.5 with peptide, expressed as a percentage of the reference compound (Nav1.5; [3]): 85%
Activity of Nav1.5 with peptide, expressed as a percentage of the reference compound (Nav1.5; [4]): 87%
Activity of Nav1.5 with peptide (percentage of the reference compound) (Nav1.5; [3]): 85%
Activity of Nav1.5 with peptide (percentage of the reference compound) (Nav1.5; [4]): 83%
Activity of hERG with peptide, expressed as a percentage of the reference compound (hERG; peptide at 0.2 μM): 92%
Activity of hERG with peptide (percentage of the reference compound) (hERG; peptide at 20 μM): 78%
Activity of Kir2.1 with peptide, expressed as a percentage of the reference compound (Kir2.1; [1]): 105%
Activity of Kir2.1 with peptide (percentage of the reference compound) (Kir2.1; [2]): 82%
Activity of Kv1.1 with peptide, expressed as a percentage of the reference compound (Kv1.1; peptide at 0.2 μM): 95%
Activity of Kv1.1 with peptide (percentage of the reference compound) (Kv1.1; peptide at 20 μM): 102%
Activity of Kv1.2 with peptide, expressed as a percentage of the reference compound (Kv1.2; peptide at 0.2 μM): 83%
Activity of Kv1.2 with peptide (percentage of the reference compound) (Kv1.2; peptide at 20 μM): 106%
Activity of Kv1.3 with peptide, expressed as a percentage of the reference compound (Kv1.3; [1]): 81%
Activity of Kv1.3 with peptide (percentage of the reference compound) (Kv1.3; [2]): 77%
Activity of Nav1.7 with peptide, expressed as a percentage of the reference compound (Nav1.7; [5]): 89%
Activity of Nav1.7 with peptide, expressed as a percentage of the reference compound (Nav1.7; [6]): 93%
Activity of Nav1.7 with peptide (percentage of the reference compound) (Nav1.7; [5]): 65%
Activity of Nav1.7 with peptide (percentage of the reference compound) (Nav1.7; [6]): 63%
Activity of NR2A with peptide, expressed as a percentage of the reference compound (NR2A; peptide at 0.2 μM): 88%
Activity of NR2A with peptide (percentage of the reference compound) (NR2A; peptide at 20 μM): 89%
Activity of NR2B with peptide, expressed as a percentage of the reference compound (NR2B; peptide at 0.2 μM): 95%
Activity of NR2B with peptide (percentage of the reference compound) (NR2B; peptide at 20 μM): 82%
Activity of TRPA1 with peptide, expressed as a percentage of the reference compound (TRPA1; peptide at 0.2 μM): 126%
Activity of TRPA1 with peptide (percentage of the reference compound) (TRPA1; peptide at 20 μM): 83%
Activity of TRPV1 with peptide, expressed as a percentage of the reference compound (TRPV1; [1]): 117%
Activity of TRPV1 with peptide (percentage of the reference compound) (TRPV1; [2]): 87%

CCN(CC)CC(=O)Nc1c(C)cccc1C [Lidocaine, reference compound]
IC50 (Nav1.7; IC50 of receptor/channel inhibition with reference compound): 465 µM and 285 µM

GSECLEIFKACNPSNDQCCKSSKLVCSRKTRWCKYQIG [SEQ ID NO: 31]
Activity against Nav1.7 channels (Nav1.7; 0.2 or 20 μM, FIG. 2): showed activity on tetrodotoxin-sensitive sodium channels (e.g., Nav1.7)

COc1ccc(CCN(C)CCCC(C#N)(c2ccc(OC)c(OC)c2)C(C)C)cc1OC (stereo not drawn) [Verapamil, reference compound]
IC50 (Kv2.1): 78 µM

GSGVPTDVKCRGSPQCIQPCKDAGMRFGKCMNGKCHCTPK [SEQ ID NO: 39]
Kv1.3 inhibition (Kv1.3): showed strong Kv1.3 inhibition

GSQFTDVKCTGSKQCWPVCKQMFGKPNGKCMNGKCRCYS [SEQ ID NO: 19]
Kv1.3 inhibition (Kv1.3): showed strong Kv1.3 inhibition

[Ba+2].[Cl-].[Cl-] [BaCl2, reference compound]
IC50 (Kir2.1; Kir2.1, read-out: IC50 of receptor/channel inhibition with reference compound): 5.25 µM

Picrotoxin [reference compound]
IC50 (GABA; GABA, read-out: IC50 of receptor/channel inhibition with reference compound): 1.72 µM

CNC1(C)C2CCC(C2)C1(C)C (stereo not drawn) [Mecamylamine, reference compound]
IC50 (α4β2; α4β2, read-out: IC50 of receptor/channel inhibition with reference compound): 1.14 µM

COCC(=O)O[C@]1(CCN(C)CCCc2nc3ccccc3[nH]2)CCc2cc(F)ccc2[C@@H]1C(C)C [Mibefradil dihydrochloride, reference compound]
IC50 (Cav2.1; Cav2.1, read-out: IC50 of receptor/channel inhibition with reference compound): 2.12 µM
IC50 (Cav2.2; Cav2.2, read-out: IC50 of receptor/channel inhibition with reference compound): 8.28 µM
